Laboratory results as given in patent US5976535A, “Pretargeting protocols for the enhanced localization of cytotoxins to target sites and cytotoxic combinations useful therefore” (NeoRx Corporation, priority 1995, dated 1999).
Read-outs that look alike come from different tables or passages of the source.

Legend:
[1] = tested on: LS-180 human colon tumor xenografts
Method: The experimental protocol was as follows:
Group 1: Time 0, inject 100 μg ^125 I-labeled,
The three radiolabels employed in this protocol are capable of detection in the presence of each other.
Areas under the curves (AUC) and the ratio of AUCtumor /AUCblood were determined.

[2] = assay type: in vivo, female BALB/c mice; conditions: 5 minutes post-administration, percent injected dose of I-125-labeled protein
Method: A. Derivitization of orosomucoid. 10 mg human orosomucoid (Sigma N-9885) was dissolved in 3.5 ml of pH 5.5 0.1 M sodium acetate buffer containing 160 mM NaCl. 70 μl of a 2% (w/v) CaCl solution in deionized (D.I.) water was added and 11 μl of neuraminidase (Sigma N-7885), 4.6 U/ml, was added. The mixture was incubated at 37° C. for 2 hours, and the entire sample was exchanged over a Centricon-10® ultrafiltration device (available from Amicon, Danvers, Mass.) with 2 volumes of PBS. The asialoorosomucoid and orosomucoid starting material were radiolabeled with I-125 using PIP technology, as described in Example IV above.
In addition, two animals receiving each compound were sacrificed at 5 minutes post-administration and limited biodistributions were performed.

[3] = target: T1, Streptavidin-agarose beads (Streptomyces avidinii, UniProt P22629); assay: Binding to streptavidin-agarose beads; conditions: for Pellet: radioactivity bound to beads; for Supernatant: radioactivity not bound to beads
T1 construct: purchased Sigma S-1638
Method: B. Biotinylation of asialoorosomucoid clearing agent and orosomucoid control. 100 μl of 0.2 M sodium carbonate buffer, pH 9.2, was added to 2 mg (in 1.00 ml PBS) of PIP-125-labeled orosomucoid and to 2 mg PIP-125-labeled asialoorosomucoid. 60 μl of a 1.85 mg/ml solution of NHS-amino caproate biotin in DMSO was then added to each compound. The reaction mixtures were vortexed and allowed to sit at room temperature for 45 minutes. […]. Streptavidin-agarose beads (Sigma S-1638) or -pellets were washed with PBS, and 20 μg of each biotinylated, radiolabeled protein was added to 400 μl of beads and 400 μl of PBS, vortexed for 20 seconds and centrifuged at 14,000 rpm for 5 minutes. The supernatant was removed and the pellets were washed with 400 μl PBS. This wash procedure was repeated twice more, and the combined supernatants were assayed by placing them in a dosimeter versus their respective pellets.

[4] = in vivo; conditions: mouse
Method: (§2) Time 0 inject (i.v.) 200 μg NR-LU-10-StrAv

[5] = Tumor uptake of PIP-biocytin (two-step pretargeting); assay type: in vivo, tumored nude mice; conditions: mouse, tumor, 0.0005 mg; 0.5 μg dose; 120 hour time point (96 hours after administration); read-out: peak tumor uptake
Method: (§1) At 24 hours, the mice received an i.v. injection of PIP-I-131-biocytin (40 μCi) and an amount of cold carrier PIP-I-127 biocytin corresponding to doses of 42 μg (69,767 pmol), 21 μg (34,884 pmol), 5.7 μg (9468 pmol), 2.85 μg (4734 pmol) or 0.5 μg (830 pmol).

[6] = tested on: LS-180 tumor xenografts; assay: as above; assay type: in vivo, tumored nude mice
Method: as §1

[7] = tested on: LS-180 tumor; conditions: mouse, in vivo
Method: as §2

[8] = tested on: LS-180 tumor xenografts; assay: Two-step pretargeting of 131I-PIP-biocytin in tumor-bearing mice; assay type: in vivo, female nude mice; conditions: 200 μg NR-LU-10-streptavidin at t=0; 42 μg at t=36 h
Method: At t=0, the mice were injected with 200 μg of NR-LU-10-streptavidin conjugate labeled with ^125 I using PIP-NHS (see Example IV.A.). At t=36 h, the mice received 42 μg of ^131 IPIP-biocytin.

[9] = in vivo; cited from earlier work

T1 sequence (P22629 25-183): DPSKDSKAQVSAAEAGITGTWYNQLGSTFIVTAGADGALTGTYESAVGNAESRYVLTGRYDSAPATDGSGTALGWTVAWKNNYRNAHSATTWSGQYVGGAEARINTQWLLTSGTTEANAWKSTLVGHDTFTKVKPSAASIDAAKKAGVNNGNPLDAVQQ

**Q.** Which results are given for Avidin?
**A.** tumor uptake ([1]; at 25 h (antibody at time 0, avidin at 24 h)): about 250 pmol/g; tumor uptake ([1]; at 32 h (antibody at time 0, avidin at 24 h)): ~150 pmol/g; tumor uptake ([1]; at 48 h (antibody at time 0, avidin at 24 h)): ~50 pmol/g; tumor uptake ([1]; at 120 h (antibody at time 0, avidin at 24 h)): ~0 pmol/g

**Q.** For “asialoorosomucoid: orosomucoid treated with neuraminidase to remove sialic acid residues”, which blood level [2] is on record?
**A.** 0.4%

**Q.** And the Pellet [3]?
**A.** 8.0%

**Q.** What about the Supernatant [3] of the same molecule?
**A.** 92%

**Q.** For O=C(CCCCC1SCC2NC(=O)NC21)NCCCCC(NC(=O)c1ccc([131I])cc1)C(=O)O (stereo not shown) [PIP-biocytin], which half-life [4] is on record?
**A.** ~5 min

**Q.** And the tissue uptake at 96 h [5]?
**A.** 85 %ID/g

**Q.** What about the “absolute AUCtumor” value ([6]; mouse, in vivo) of the same molecule?
**A.** 9220

**Q.** And the tumor localization ([6]; three highest doses (42, 21, 5.7 μg), 4 hours after injection)?
**A.** about 600 pmol/g

**Q.** And the peak tumor uptake [7]?
**A.** about 700 pMOL/G

**Q.** What about the tumor uptake [7] of the same molecule?
**A.** above 500 pMOL/G

**Q.** And the “specific tumor localization, molecules per avidin molecule” value [8]?
**A.** ≈ 1.5

**Q.** For “orosomucoid: human orosomucoid (alpha-1 acid glycoprotein, Sigma N-9885), I-125 labeled [reference compound]”, which blood level [2] is on record?
**A.** 78%

**Q.** And the Pellet [3]?
**A.** 10%

**Q.** And the Supernatant [3]?
**A.** 90%

**Q.** Which serum half-life [9] does the source give for TNF-alpha here?
**A.** 10 to 15 min

B1: TNF-beta: tumor necrosis factor beta form, 171 amino acids (protein, UniProt P01374 35-205, looked up)
Lymphotoxin-alpha: LPGVGLTPSAAQTARQHPKMHLAHSTLKPAAHLIGDPSKQNSLLWRANTDRAFLQDGFSLSNNSLLVPTSGIYFVYSQVVFSGKAYSPKATSSPLYLAHEVQLFSSQYPFHVPLLSSQKMVYPGLQEPWLHSMYHGAAFQLTQGDQLSTHTDGIPHLVLSPSTVFFGAFAL
**Q.** With B1 as the molecule, how does the serum half-life [9] read?
**A.** 10 to 15 min
